According to the supplement of paper PMC12458215:
± gives the uncertainty stated by the source.

System: HEK293T
Assay: plasma membrane surface immunostaining intensity (anti-HA, deep receptor scanning) (arbitrary fluorescence units); higher = higher plasma membrane expression

Sequence	plasma membrane surface immunostaining intensity (GPCR class: A (Olfactory))	other results
MQGLNHTSVSEFILVGFSAFPHLQLMLFLLFLLMYLFTLLGNLLIMATVWSERSLHMPMYLFLCALSITEILYTVAIIPRMLADLLSTQRSIAFLACASQMFFSFSFGFTHSFLLTVMGYDRYVAICHPLRYNVLMSLRGCTCRVGCSWAGGLVMGMVVTSAIFHLAFCGHKEIHHFFCHVPPLLKLACGDDVLVVAKGVGLVCITALLGCFLLILLSYAFIVAAILKIPSAEGRNKAFSTCASHLTVVVVHYGFASVIYLKPKGPQSPEGDTLMGITYTVLTPFLSPIIFSLRNKELKVAMKKTCFTKLFPQNC [OR10H5]	129 ± 21	–
MAEENHTMKNEFILTGFTDHPELKTLLFVVFFAIYLITVVGNISLVALIFTHRRLHTPMYIFLGNLALVDSCCACAITPKMLENFFSENKRISLYECAVQFYFLCTVETADCFLLAAMAYDRYVAICNPLQYHIMMSKKLCIQMTTGAFIAGNLHSMIHVGLVFRLVFCGSNHINHFYCDILPLYRLSCVDPYINELVLFIFSGSVQVFTIGSVLISYLYILLTIFKMKSKEGRAKAFSTCASHFLSVSLFYGSLFFMYVRPNLLEEGDKDIPAAILFTIVVPLLNPFIYSLRNREVISVLRKILMKK [OR5K1]	194 ± 62	–
MATLPAAETWIDGGGGVGADAVNLTASLAAGAATGAVETGWLQLLDQAGNLSSSPSALGLPVASPAPSQPWANLTNQFVQPSWRIALWSLAYGVVVAVAVLGNLIVIWIILAHKRMRTVTNYFLVNLAFSDASMAAFNTLVNFIYALHSEWYFGANYCRFQNFFPITAVFASIYSMTAIAVDRYMAIIDPLKPRLSATATKIVIGSIWILAFLLAFPQCLYSKTKVMPGRTLCFVQWPEGPKQHFTYHIIVIILVYCFPLLIMGITYTIVGITLWGGEIPGDTCDKYHEQLKAKRKVVKMMIIVVMTFAICWLPYHIYFILTAIYQQLNRWKYIQQVYLASFWLAMSSTMYNPIIYCCLNKRFRAGFKRAFRWCPFIKVSSYDELELKTTRFHPNRQSSMYTVTRMESMTVVFDPNDADTTRSSRKKRATPRDPSFNGCSRRNSKSASATSSFISSPYTSVDEYS [TACR3]	–	plasma membrane surface immunostaining intensity (GPCR class: A): 4780 ± 620
MDLKNGSLVTEFILLGFFGRWELQIFFFVTFSLIYGATVMGNILIMVTVTCRSTLHSPLYFLLGNLSFLDMCLSTATTPKMIIDLLTDHKTISVWGCVTQMFFMHFFGGAEMTLLIIMAFDRYVAICKPLHYRTIMSHKLLKGFAILSWIIGFLHSISQIVLTMNLPFCGHNVINNIFCDLPLVIKLACIETYTLELFVIADSGLLSFTCFILLLVSYIVILVSVPKKSSHGLSKALSTLSAHIIVVTLFFGPCIFIYVWPFSSLASNKTLAVFYTVITPLLNPSIYTLRNKKMQEAIRKLRFQYVSSAQNF [OR4L1]	549 ± 220	–
MAGVVHVSLAALLLLPMAPAMHSDCIFKKEQAMCLEKIQRANELMGFNDSSPGCPGMWDNITCWKPAHVGEMVLVSCPELFRIFNPDQVWETETIGESDFGDSNSLDLSDMGVVSRNCTEDGWSEPFPHYFDACGFDEYESETGDQDYYYLSVKALYTVGYSTSLVTLTTAMVILCRFRKLHCTRNFIHMNLFVSFMLRAISVFIKDWILYAEQDSNHCFISTVECKAVMVFFHYCVVSNYFWLFIEGLYLFTLLVETFFPERRYFYWYTIIGWGTPTVCVTVWATLRLYFDDTGCWDMNDSTALWWVIKGPVVGSIMVNFVLFIGIIVILVQKLQSPDMGGNESSIYLRLARSTLLLIPLFGIHYTVFAFSPENVSKRERLVFELGLGSFQGFVVAVLYCFLNGEVQAEIKRKWRSWKVNRYFAVDFKHRHPSLASSGVNGGTQLSILSKSSSQIRMSGLPADNLAT [ADCYAP1R1]	–	plasma membrane surface immunostaining intensity (GPCR class: B): 6416 ± 29
MGMEGLLQNSTNFVLTGLITHPAFPGLLFAIVFSIFVVAITANLVMILLIHMDSRLHTPMYFLLSQLSIMDTIYICITVPKMLQDLLSKDKTISFLGCAVQIFLYLTLIGGEFFLLGLMAYDRYVAVCNPLRYPLLMNRRVCLFMVVGSWVGGSLDGFMLTPVTMSFPFCRSREINHFFCEIPAVLKLSCTDTSLYETLMYACCVLMLLIPLSVISVSYTHILLTVHRMNSAEGRRKAFATCSSHIMVVSVFYGAAFYTNVLPHSYHTPEKDKVVSAFYTILTPMLNPLIYSLRNKDVAAALRKVLGRCGSSQSIRVATVIRKG [OR2T2]	130 ± 17	–
